Legend:
[1] = target: T1, human B7-H3 on human tumor cells (MCF-7, HT29, NCI-N87, HCC1806, HCC827) (human, UniProt Q5ZPR3 29-534); test: flow cytometry on HT29 cells
T1 construct: whole, on cells
T1 sequence (looked up): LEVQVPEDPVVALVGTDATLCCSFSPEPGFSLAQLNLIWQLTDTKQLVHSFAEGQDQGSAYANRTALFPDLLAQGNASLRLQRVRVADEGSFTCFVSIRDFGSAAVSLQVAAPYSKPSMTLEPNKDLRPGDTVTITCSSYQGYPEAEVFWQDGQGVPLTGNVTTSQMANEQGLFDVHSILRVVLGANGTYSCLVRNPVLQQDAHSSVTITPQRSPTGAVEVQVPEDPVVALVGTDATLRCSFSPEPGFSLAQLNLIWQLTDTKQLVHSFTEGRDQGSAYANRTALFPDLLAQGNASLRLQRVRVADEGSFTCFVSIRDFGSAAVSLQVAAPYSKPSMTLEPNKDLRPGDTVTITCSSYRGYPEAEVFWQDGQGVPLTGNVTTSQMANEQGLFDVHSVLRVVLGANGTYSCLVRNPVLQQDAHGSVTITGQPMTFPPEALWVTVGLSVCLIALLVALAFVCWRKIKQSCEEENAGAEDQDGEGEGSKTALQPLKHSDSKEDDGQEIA

[2] = target: T1, human B7-H3 on human tumor cells …; test: flow cytometry on HCC1806 cells
[3] = target: T2, human B7-H3-4Ig on CHO-S cells (CHO-S-human B7-H3-4Ig) (human, UniProt Q5ZPR3 29-534); test: flow cytometry on CHO-S-human B7-H3-4Ig cells
T2 construct: whole, on cells; also called CHO-S-B7-H3-4Ig
T2 sequence (looked up): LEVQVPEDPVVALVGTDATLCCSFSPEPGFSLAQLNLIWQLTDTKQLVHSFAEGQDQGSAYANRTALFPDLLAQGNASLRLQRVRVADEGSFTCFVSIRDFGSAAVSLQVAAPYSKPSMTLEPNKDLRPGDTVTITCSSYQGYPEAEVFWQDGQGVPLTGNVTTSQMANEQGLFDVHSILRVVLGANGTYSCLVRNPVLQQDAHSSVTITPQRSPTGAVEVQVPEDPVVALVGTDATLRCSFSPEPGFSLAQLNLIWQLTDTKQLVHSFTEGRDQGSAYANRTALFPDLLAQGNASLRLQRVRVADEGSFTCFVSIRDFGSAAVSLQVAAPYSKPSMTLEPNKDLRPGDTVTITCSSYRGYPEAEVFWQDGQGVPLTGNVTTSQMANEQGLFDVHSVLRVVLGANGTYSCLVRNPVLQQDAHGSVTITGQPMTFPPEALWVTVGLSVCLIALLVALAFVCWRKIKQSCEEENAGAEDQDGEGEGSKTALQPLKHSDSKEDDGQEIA

[4] = target: T1, human B7-H3 on human tumor cells …; test: flow cytometry on HCC827 cells
human B7-H1-mFc = target: T3, human B7-H1-mFc (human, UniProt Q9NZQ7 19-238); test: ELISA, antigen coated at 1 ug/ml, 2#8890-biotin detected with streptavidin-peroxidase
T3 construct: Self-constructed; not shown: mFc
T3 sequence (Q9NZQ7 19-238): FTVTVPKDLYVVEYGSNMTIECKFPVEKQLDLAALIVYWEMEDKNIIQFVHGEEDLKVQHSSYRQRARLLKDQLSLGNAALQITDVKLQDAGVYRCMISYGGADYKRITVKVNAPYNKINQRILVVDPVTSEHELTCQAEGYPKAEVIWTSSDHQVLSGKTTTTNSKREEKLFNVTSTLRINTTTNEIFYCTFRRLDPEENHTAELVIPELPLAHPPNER

human B7-H4-hFc = target: T4, human B7-H4-hFc (human, UniProt Q7Z7D3 25-259); test: as above
T4 construct: Bought protein; not shown: hFc
T4 sequence (looked up): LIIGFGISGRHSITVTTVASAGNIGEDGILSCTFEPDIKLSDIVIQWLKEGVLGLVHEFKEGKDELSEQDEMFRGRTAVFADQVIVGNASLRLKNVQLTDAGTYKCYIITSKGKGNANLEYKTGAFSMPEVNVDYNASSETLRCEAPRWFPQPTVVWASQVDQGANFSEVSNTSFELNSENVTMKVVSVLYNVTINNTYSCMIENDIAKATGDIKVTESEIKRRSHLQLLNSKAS

[5] = target: T1, human B7-H3 on human tumor cells …; test: cell-based or functional assay
[6] = target: T5, rat B7-H3 on CHO-S cells (CHO-S-rat B7-H3) (rat, UniProt Q7TPB4 29-316); test: flow cytometry on CHO-S-rat B7-H3 cells
T5 construct: whole, on cells; also called rat B7-H3-overexpressed cells
T5 sequence (looked up): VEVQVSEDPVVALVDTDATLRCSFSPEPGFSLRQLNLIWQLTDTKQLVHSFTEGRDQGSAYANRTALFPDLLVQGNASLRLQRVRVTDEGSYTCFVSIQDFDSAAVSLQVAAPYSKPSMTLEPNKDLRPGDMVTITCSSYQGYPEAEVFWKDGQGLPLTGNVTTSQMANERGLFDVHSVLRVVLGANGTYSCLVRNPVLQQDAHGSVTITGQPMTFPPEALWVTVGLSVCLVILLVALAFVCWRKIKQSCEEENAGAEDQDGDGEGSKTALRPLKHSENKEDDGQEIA

[7] = target: T2, human B7-H3-4Ig on CHO-S cells …; test: cell-based or functional assay
[8] = target: T1, human B7-H3 on human tumor cells …; test: flow cytometry on NCI-N87 cells
[9] = target: T6, human B7-H3-2Ig on CHO-S cells (CHO-S-human B7-H3-2Ig) (human, UniProt Q5ZPR3 29-316); test: flow cytometry on CHO-S-human B7-H3-2Ig cells
T6 construct: also called CHO-S-B7-H3-2Ig
T6 sequence: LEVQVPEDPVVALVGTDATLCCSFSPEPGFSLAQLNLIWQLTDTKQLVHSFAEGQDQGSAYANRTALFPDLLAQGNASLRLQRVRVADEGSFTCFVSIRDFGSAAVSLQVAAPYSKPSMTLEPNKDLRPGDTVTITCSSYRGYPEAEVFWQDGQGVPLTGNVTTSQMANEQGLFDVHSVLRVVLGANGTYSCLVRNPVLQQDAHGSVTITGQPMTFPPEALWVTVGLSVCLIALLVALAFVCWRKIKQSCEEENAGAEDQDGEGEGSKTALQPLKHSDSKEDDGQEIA

B1: anti-human-B7-H3 human antibody 2#8890 (antibody, human IgG1, kappa, V domains shown)
VH: QVQLQESGPGLVQPSGTLSLTCAVSGGSDSSTNWWTWVRQSPGQGLEWIGEISPIGFTSYSPSLRSRVTISVDKSKTQFSLKLSSVTAADTAVYYCARDRLYFAFWGQGTLVTVSS
VL: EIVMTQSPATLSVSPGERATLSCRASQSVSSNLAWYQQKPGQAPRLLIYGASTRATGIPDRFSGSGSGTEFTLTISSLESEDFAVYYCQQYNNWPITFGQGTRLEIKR
EC50 [1]: 0.00634 µg/mL
EC50 [2]: 0.00967 µg/mL
EC50 [3]: 0.115 µg/mL
EC50 [4]: 0.0123 µg/mL
binding result (human B7-H1-mFc): no binding (tested: 10 ug/ml highest concentration)
binding result (human B7-H4-hFc): no binding (tested: 10 ug/ml highest concentration)
Endocytosis EC50 on HCC827 cells (PHrodo, flow cytometry) [5]: 0.0102 µg/mL
Endocytosis EC50 on HCC1806 cells (PHrodo, flow cytometry) [5]: 0.0206 µg/mL
Endocytosis EC50 on NCI-N87 cells (PHrodo, flow cytometry) [5]: 0.0122 µg/mL
binding result [6]: no binding (tested: 10 ug/ml highest concentration)
CDC: EC50 of killing of target cell CHO-S-B7-H3-4Ig with 10% guinea pig serum complement [7]: 2.92 µg/mL
EC50 [8]: 0.00577 µg/mL
EC50 [9]: 0.0684 µg/mL

Source: EP4596582A1 (Sichuan Kelun-Biotech Biopharmaceutical Co., Ltd., dated 2025)
